# Data reported in patent US20200199241A1 (Chugai, published 2020).
# Where a chain is given by its changes, count along the chain named. In names and notes the source's numbering stands.
# B1: IL6R-BP194/IL6R-L (antibody, human IgG1)
# heavy: QVQLQESGPGLVKPSETLSLTCAVSGHSISHDHAWSWVRQPPGEGLEWIGFISYSGITNYNPSLQGRVTISRDNSKNTLYLQMNSLRAEDTAVYYCARSLARTTAMDYWGEGTLVTVSSASTKGPSVFPLAPSSKSTSGGTAALGCLVKDYFPEPVTVSWNSGALTSGVHTFPAVLQSSGLYSLSSVVTVPSSSLGTQTYICNVNHKPSNTKVDKKVEPKSCDKTHTCPPCPAPDYLGDDSVFLFPPKPKDTLMISRTPEVTCVVVDVSDEDGEVKFNWYVDGVEVHNAKTKPREEQYNSTYRVVSVLTVLHQDWLNGKEYKCKVSNAALPKPIEKTISKAKGQPREPQVYTLPPSRDELTKNQVSLTCLVKGFYPSDIAVEWESNGQPENNYKTTPPVLDSDGSFFLYSKLTVDKSRWQQGNVFSCSVMHEALHNHYTQESLSLSP
# light: DIQMTQSPSSLSASVGDRVTITCRASQDISSYLNWYQQKPGKAPKLLIYYTSRLHSGVPSRFSGSGSGTDFTFTISSLQPEDIATYYCQQGNTLPYTFGQGTKVEIK
# notes: Anti-IL-6R human IgG1 variant; copies: 2 + 2
# B2: IL6R-BP195/IL6R-L (antibody, human IgG1)
# heavy: B1 heavy with Y298D
# light: B1 light
# notes: as for B1
# B3: IL6R-BP196/IL6R-L (antibody, human IgG1)
# heavy: B1 heavy with D235E, D239G
# light: B1 light
# notes: as for B1
# B4: IL6R-BP197/IL6R-L (antibody, human IgG1)
# heavy: B1 heavy with Y298D, A328D
# light: B1 light
# notes: as for B1
# B5: IL6R-BP203/IL6R-L (antibody, human IgG1)
# heavy: B1 heavy with D235E, Y236L, D270H, A328K, K332R
# light: B1 light
# notes: as for B1
# B6: IL6R-BP206/IL6R-L (antibody, human IgG1)
# heavy: B1 heavy with Y236L, D239G, D270H, A328K, K332R
# light: B1 light
# notes: as for B1
# B7: IL6R-BP208/IL6R-L (antibody, human IgG1)
# heavy: B1 heavy with Y236L, A328K, K332R
# light: B1 light
# notes: as for B1
# B8: IL6R-BP209/IL6R-L (antibody, human IgG1)
# heavy: B1 heavy with D235E, Y236L, K332R
# light: B1 light
# notes: as for B1
# B9: IL6R-BP211/IL6R-L (antibody, human IgG1)
# heavy: B1 heavy with Y236L, D239G, K332R
# light: B1 light
# notes: as for B1
# B10: IL6R-BP213/IL6R-L (antibody, human IgG1)
# heavy: B1 heavy with Y236L, D239G, A328K, K332R
# light: B1 light
# notes: as for B1
# B11: IL6R-2B128/IL6R-L (antibody, human IgG1)
# heavy: B1 heavy with D235E, Y236L, D239G, D270H, G273P, Y298D, A328K, K332A
# light: B1 light
# notes: IgG1; Fc variant of IL6R-B3; copies: 2 + 2
# B12: IL6R-2B169/IL6R-L (antibody, human IgG1)
# heavy: B1 heavy with D235E, Y236L, D239G, D270H, G273P, V325I, A328K, K332A
# light: B1 light
# notes: as for B11
# B13: IL6R-BP110/IL6R-L (antibody, human IgG1)
# heavy: B1 heavy with D235E, Y236L, D239G, D270N, G273P, A328K, K332A
# light: B1 light
# notes: as for B11
# B14: IL6R-BP121/IL6R-L (antibody, human IgG1)
# heavy: B1 heavy with D235E, Y236L, D239G, D270H, G273P, A328Q, K332A
# light: B1 light
# notes: as for B11
# B15: IL6R-BP912/IL6R-L (antibody, human IgG1)
# heavy: B1 heavy with D235E, Y236L, D239G, D270H, G273P, A328K, K332R
# light: B1 light
# notes: as for B11
# B16: antibody with VH3-IgG1-F1324 heavy chain and L(WT)-CK light chain (antibody)
# heavy: QVQLQESGPGLVKPSETLSLTCAVSGHSISHDHAWSWVRQPPGEGLEWIGFISYSGITNYNPSLQGRVTISRDNSKNTLYLQMNSLRAEDTAVYYCARSLARTTAMDYWGEGTLVTVSSASTKGPSVFPLAPSSKSTSGGTAALGCLVKDYFPEPVTVSWNSGALTSGVHTFPAVLQSSGLYSLSSVVTVPSSSLGTQTYICNVNHKPSNTKVDKKVEPKSCDKTHTCPPCPAPEAAGGPSVFLFPPKPKDTLYISRTPEVTCVVVDVSHEDPEVKFNWYVDGVEVHNAKTKPREEQYNSTYRVVSVLTVLHQDWLNGKEYKCKVSNKALPAPIEKTISKAKGQPREPQVYTLPPSRDELTKNQVSLTCLVKGFYPSDIAVEWESNGQPENNYKTTPPVLDSDGSFFLYSKLTVDKSRWQQGNVFSCSVMHEALHYHVTQKSLSLSP
# light: not shown
# notes: L234A/L235A on VH3-IgG1-F890; copies: 2 + 2
# Target: T1, FcγRIIb (human, UniProt P31994 43-217, limits assumed)
# T1 construct: also called FcγIIB; CD32
# T1 sequence: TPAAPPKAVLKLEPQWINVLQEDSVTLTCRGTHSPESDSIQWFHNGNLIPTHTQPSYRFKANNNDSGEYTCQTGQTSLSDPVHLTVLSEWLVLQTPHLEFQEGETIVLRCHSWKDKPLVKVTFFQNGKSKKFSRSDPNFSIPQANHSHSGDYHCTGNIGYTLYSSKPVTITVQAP
# Experiment: SPR (Biacore); KD for FcγRIIaH divided by KD for FcγRIIb of the same antibody; column head in Table 52-1
# From the text: (§1) Furthermore, KD(IIaR)/KD(IIb) and KD(IIaH)/KD(IIb) in the table respectively represent the value obtained by dividing the KD value of each variant for FcγRIIaR by the KD value of each variant for FcγRIIb, and the value obtained by dividing the KD value of each variant for FcγRIIaH by the KD value of each variant for FcγRIIb. KD(IIb) of the parent polypeptide/KD(IIb) of the altered polypeptide refers to the value obtained by dividing the KD value of the parent polypeptide for FcγRIIb by the KD value of each variant for FcγRIIb.
row,Binder,KD(IIaH)/KD(IIb)
1,B1,164
2,B2,201
3,B3,85.2
4,B4,209
5,B5,227
6,B6,123
7,B7,256
8,B8,195
9,B9,120
10,B10,136

# Target: T2, FcγRIIIa type V (human, UniProt P08637 17-208, limits assumed)
# T2 construct: also called FcγRIIIaV; FcγRIIIa(V)
# Experiment: SPR (Biacore), method of Example 14
# T2 sequence (P08637 17-208 F176V limits assumed): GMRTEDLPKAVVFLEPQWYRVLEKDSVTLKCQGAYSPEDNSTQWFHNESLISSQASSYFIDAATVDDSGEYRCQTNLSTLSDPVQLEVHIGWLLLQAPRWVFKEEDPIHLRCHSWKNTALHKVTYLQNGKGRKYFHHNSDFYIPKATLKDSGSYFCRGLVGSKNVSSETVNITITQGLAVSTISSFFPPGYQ
# From the text: as §1
row,Binder,Kd [µM]
1,B1,27
2,B2,31
3,B3,51
4,B4,33
5,B5,72
6,B6,69
7,B7,53
8,B8,41
9,B9,73
10,B10,63

# Target: T3, FcγRIIa type R (human, UniProt P12318 36-217)
# T3 construct: also called FcγRIIaR; FcγRIIa(R)
# T3 chain: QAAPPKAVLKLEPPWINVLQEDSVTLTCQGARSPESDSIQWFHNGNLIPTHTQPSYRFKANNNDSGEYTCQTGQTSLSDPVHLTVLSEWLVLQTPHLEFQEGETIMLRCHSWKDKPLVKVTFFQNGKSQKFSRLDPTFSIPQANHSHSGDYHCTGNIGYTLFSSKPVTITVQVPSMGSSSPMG
# Experiment: SPR (Biacore), method of Example 14
# From the text: as §1
row,Binder,Kd [µM]
1,B1,0.82
2,B2,0.91
3,B3,3
4,B4,0.98
5,B5,0.99
6,B6,3.1
7,B7,0.85
8,B8,1.2
9,B9,4.1
10,B10,3.1

# Target: T1, FcγRIIb
# Experiment: SPR (Biacore), method of Example 14
# From the text: as §1
row,Binder,Kd [µM]
1,B1,0.052
2,B2,0.05
3,B3,0.22
4,B4,0.058
5,B5,0.049
6,B6,0.2
7,B7,0.032
8,B8,0.051
9,B9,0.22
10,B10,0.18

# Target: T4, FcγRIa (human, UniProt P12314 16-292, limits assumed)
# T4 construct: also called CD64
# Experiment: SPR (Biacore), method of Example 14
# T4 sequence (P12314 16-292 limits assumed): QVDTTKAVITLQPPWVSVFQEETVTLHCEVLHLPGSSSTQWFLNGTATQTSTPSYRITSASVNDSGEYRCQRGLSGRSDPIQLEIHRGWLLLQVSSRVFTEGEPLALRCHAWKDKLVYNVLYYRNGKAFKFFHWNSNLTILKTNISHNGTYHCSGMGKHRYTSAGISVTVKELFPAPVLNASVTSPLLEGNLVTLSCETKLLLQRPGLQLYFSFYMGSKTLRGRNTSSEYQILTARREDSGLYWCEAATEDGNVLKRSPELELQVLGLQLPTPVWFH
# From the text: as §1
row,Binder,Kd [µM]
1,B1,0.024
2,B2,0.023
3,B3,0.014
4,B4,0.019
5,B5,0.18
6,B6,0.0082
7,B7,0.019
8,B8,0.039
9,B9,0.0042
10,B10,0.0041

# Target: T5, FcγRIIa type H (human, UniProt P12318 36-217)
# T5 construct: also called FcγRIIaH; FcγRIIa(H)
# T5 sequence: T3 chain with R133H
# Experiment: SPR (Biacore), method of Example 14
# From the text: as §1
row,Binder,Kd [µM]
1,B1,8.5
2,B2,10
3,B3,19
4,B4,12
5,B5,11
6,B6,24
7,B7,83
8,B8,10
9,B9,27
10,B10,24

# Target: T1, FcγRIIb
# Experiment: SPR (Biacore); KD for FcγRIIaR divided by KD for FcγRIIb of the same antibody; column head in Table 52-1
# From the text: as §1
row,Binder,KD(IIaR)/KD(IIb)
1,B1,15.8
2,B2,18.2
3,B3,13.4
4,B4,17.1
5,B5,20.5
6,B6,16.1
7,B7,26.3
8,B8,22.7
9,B9,18.5
10,B10,17.7

# Target: T6, FcγRIIIa type V (human, UniProt P08637 17-208, limits assumed)
# T6 construct: also called FcγRIIIaV; FcgRIIIaV
# Experiment: SPR (Biacore), FcγR over captured antibody
# T6 sequence (P08637 other isoform, or with tags, fused parts or gaps limits assumed): as the sequence (P08637 17-208 F176V limits assumed) above, with A179S counted along it
row,Binder,Kd [µM]
1,B11,72
2,B12,75
3,B13,64
4,B14,52
5,B15,78

# Target: T7, FcγRIa (human, UniProt P12314 16-292, limits assumed)
# T7 construct: also called FcgRIa; CD64
# Experiment: SPR (Biacore), FcγR over captured antibody
# T7 sequence (P12314 16-292 limits assumed): as the sequence (P12314 16-292 limits assumed) above
row,Binder,Kd [µM]
1,B11,0.013
2,B12,0.025
3,B13,0.0073
4,B14,0.011
5,B15,0.038

# Target: T8, FcγRIIa type H (human, UniProt P12318 36-217)
# T8 construct: also called FcγRIIaH; FcγRIIH
# T8 sequence: T3 chain with R133H
# Experiment: SPR (Biacore), FcγR over captured antibody
row,Binder,Kd [µM]
1,B11,34
2,B12,48
3,B13,47
4,B14,44
5,B15,38

# Target: T9, FcγRIIb (human, UniProt P31994 43-217, limits assumed)
# T9 construct: also called FcgRIIb; FcγIIB
# T9 sequence: T1 sequence
# Experiment: SPR (Biacore), FcγR over captured antibody
row,Binder,Kd [µM]
1,B11,1.4
2,B12,1.2
3,B13,1.5
4,B14,1.1
5,B15,1.5

# Target: T1, FcγRIIb
# Experiment: ratio of SPR KD values, parent IL6R-B3/IL6R-L
# From the text: as §1
row,Binder,KD(IIb) of the parent polypeptide/KD(IIb) of altered polypeptide [fold]
1,B1,59.4
2,B2,62
3,B3,13.9
4,B4,53.7
5,B5,63.7
6,B6,15.8
7,B7,95.4
8,B8,60.4
9,B9,13.8
10,B10,17.6

# Target: T9, FcγRIIb
# Experiment: SPR (Biacore), KD of IL6R-B3/IL6R-L divided by KD of the variant
# From the text: as §1
row,Binder,KD(IIb) of the parent polypeptide/KD(IIb) of altered polypeptide [fold]
1,B11,2.1
2,B12,2.6
3,B13,2.1
4,B14,2.8
5,B15,2.1

# Target: T10, human FcγRIIa(H) (human, UniProt P12318 36-217)
# T10 construct: also called hFcgRIIa(H); FcγRIIa type H
# T10 sequence: T3 chain with R133H
# Experiment: SPR, antibody captured by Protein L, human FcγR as analyte, pH 7.4, 25 C;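 further: biacore T100 or T200 with Protein L amine-coupled on a CM4 chip, FcγRs diluted in ACES saline with polysorbate 20, buffer-only injection as blank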
row,Binder,BINDING AMOUNT (RU)
1,B16,6.97

# Target: T11, human FcγRIa (human, UniProt P12314 16-292, limits assumed)
# T11 construct: also called hFcgRIa; hFcgRI
# Experiment: as above
# T11 sequence (P12314 16-292 limits assumed): as above
row,Binder,BINDING AMOUNT (RU)
1,B16,227

# Target: T12, human FcγRIIIa(V) (human, UniProt P08637 17-208, limits assumed)
# T12 construct: also called hFcgRIIIa(V); allotype V158
# Experiment: as above
# T12 sequence (P08637 other isoform, or with tags, fused parts or gaps limits assumed): as the sequence (P08637 17-208 F176V limits assumed) above, with A179S counted along it
row,Binder,BINDING AMOUNT (RU)
1,B16,39.5

# Target: T13, human FcγRIIa(R) (human, UniProt P12318 36-217)
# T13 construct: also called hFcgRIIa(R); FcγRIIa type R
# T13 chain: T3 chain
# Experiment: as above
row,Binder,BINDING AMOUNT (RU)
1,B16,9.1
